Reference: paper PMC4012331 (Biochimica et biophysica acta, 2013)

How the values were obtained:
[1] = biological target: T1, flavodoxin (Fld); apo-Fld (Escherichia coli, UniProt P61949); assay: isothermal titration calorimetry; type: binding
T1 sequence (P61949 2-176): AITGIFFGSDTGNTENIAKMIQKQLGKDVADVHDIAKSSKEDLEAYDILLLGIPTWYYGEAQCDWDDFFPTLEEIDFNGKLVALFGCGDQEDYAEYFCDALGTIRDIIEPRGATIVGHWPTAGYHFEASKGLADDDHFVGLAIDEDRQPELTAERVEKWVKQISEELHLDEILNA

[2] = biological target: pyruvate formate-lyase activating enzyme (PFL-AE), Escherichia coli (Escherichia coli) (UniProt P0A9N6); assay: SPR
[3] = biological target: NADP+-dependent flavodoxin oxidoreductase (FNR), Escherichia coli (E. coli) (UniProt P28861); assay: SPR
Chain of NADP+-dependent flavodoxin oxidoreductase (FNR), Escherichia coli (E. coli) (P28861 whole entry): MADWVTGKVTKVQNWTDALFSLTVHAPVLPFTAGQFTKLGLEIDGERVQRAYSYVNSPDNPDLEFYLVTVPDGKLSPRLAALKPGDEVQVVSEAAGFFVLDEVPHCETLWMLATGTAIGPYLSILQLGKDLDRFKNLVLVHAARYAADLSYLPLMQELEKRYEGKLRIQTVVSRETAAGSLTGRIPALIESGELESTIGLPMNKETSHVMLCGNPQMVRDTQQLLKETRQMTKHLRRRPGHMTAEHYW

Chain of pyruvate formate-lyase activating enzyme (PFL-AE), Escherichia coli (Escherichia coli) (P0A9N6 2-246): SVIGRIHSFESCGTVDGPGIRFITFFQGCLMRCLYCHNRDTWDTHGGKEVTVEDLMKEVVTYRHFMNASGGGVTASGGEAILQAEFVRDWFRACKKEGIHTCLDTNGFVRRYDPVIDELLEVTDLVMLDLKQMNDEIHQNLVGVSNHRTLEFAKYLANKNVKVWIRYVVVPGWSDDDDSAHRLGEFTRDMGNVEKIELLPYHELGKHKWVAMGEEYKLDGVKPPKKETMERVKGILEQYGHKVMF

| Kd [1] [µM] | Molecule | Kd [2] [µM] | Kd [3] [µM] |
| --- | --- | --- | --- |
| 0.0056 ± 0.0012 | Cc1cc2nc3c(=O)[nH]c(=O)nc-3n(C[C@H](O)[C@H](O)[C@H](O)COP(=O)(O)O)c2cc1C [FMN] | – | – |
| – | holo-flavodoxin (Fld with bound FMN cofactor), Escherichia coli (from UniProt P61949 2-176) (natural protein) | 23.3 | 3.7 |
